These results are taken from article PMC10783490, “Biochemical and cellular insights into the Baz2B protein, a non-catalytic subunit of the chromatin remodeling complex” (Nucleic Acids Research, 2023).

What all share (experiment): MST; 100 nM fluorescently labelled (RED-NHS) BRD^Baz2B, peptide (H3 or H3K14ac) titrated; MST buffer 150 mM Tris-HCl, 50 mM NaCl, 10 mM MgCl2, pH 7.6, 0.0025% Pluronic, 200 ng/ul BSA; 25 C, 20% MST power; at least triplicate
Holding throughout (details): both partners purified

Assay [1] concerns the target T1, His6-BRD^Baz2B (bromodomain of human Baz2B, wild-type) (human, UniProt Q9UIF8 2054-2168, fluorescent label (Monolith NT Protein Labelling Kit RED-NHS)).
T1 construct: bromodomain (BRD) of human Baz2B, from plasmid pNIC28-Bsa4-BAZ2B-BRD; also called BAZ2B-BRD; source: E. coli BL21(DE3)-R3-pRARE2, purified (Ni-NTA, Sephadex 75)
T1 sequence: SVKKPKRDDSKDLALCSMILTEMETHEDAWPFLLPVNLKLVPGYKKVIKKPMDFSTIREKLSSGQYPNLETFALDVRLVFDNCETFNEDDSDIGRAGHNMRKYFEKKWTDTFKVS

The target in assay [2] is T1, His6-BRD^Baz2B (bromodomain of human …). This is another data set of the same source.
In assay [3] the target is T2, BRD^Baz2B L2073V (human, UniProt Q9UIF8 2054-2168, L2073V, fluorescent label (Monolith NT Protein Labelling Kit RED-NHS)).
T2 construct: bromodomain (BRD) of human Baz2B with a cancer-associated point mutation, made on pNIC28-Bsa4-BAZ2B-BRD; Same limits as m1; mutation found in pancreatic cancer (COSMIC/ICGC); source: E. coli BL21(DE3)-R3-pRARE2, purified (Ni-NTA, Sephadex 75)
T2 sequence: T1 sequence with L20V

Assay [4] has as its target T3, BRD^Baz2B K2098N (human, UniProt Q9UIF8 2054-2168, K2098N, fluorescent label (Monolith NT Protein Labelling Kit RED-NHS)).
T3 construct: bromodomain (BRD) of human Baz2B with a cancer-associated point mutation, made on pNIC28-Bsa4-BAZ2B-BRD; Same limits as m1; mutation found in multiple myeloma; source: E. coli BL21(DE3)-R3-pRARE2, purified (Ni-NTA, Sephadex 75)
T3 sequence: T1 sequence with K45N

In assay [5] the target is T4, BRD^Baz2B L2127V (human, UniProt Q9UIF8 2054-2168, L2127V, fluorescent label (Monolith NT Protein Labelling Kit RED-NHS)).
T4 construct: bromodomain (BRD) of human Baz2B with a cancer-associated point mutation, made on pNIC28-Bsa4-BAZ2B-BRD; Same limits as m1; mutation found in breast cancer; source: E. coli BL21(DE3)-R3-pRARE2, purified (Ni-NTA, Sephadex 75)
T4 sequence: T1 sequence with L74V

The target of assay [6] is T5, BRD^Baz2B T2138I (human, UniProt Q9UIF8 2054-2168, T2138I, fluorescent label (Monolith NT Protein Labelling Kit RED-NHS)).
T5 construct: bromodomain (BRD) of human Baz2B with a cancer-associated point mutation, made on pNIC28-Bsa4-BAZ2B-BRD; Same limits as m1; mutation found in multiple myeloma; source: E. coli BL21(DE3)-R3-pRARE2, purified (Ni-NTA, Sephadex 75)
T5 sequence: T1 sequence with T85I

The target of assay [7] is T6, BRD^Baz2B F2139C (human, UniProt Q9UIF8 2054-2168, F2139C, fluorescent label (Monolith NT Protein Labelling Kit RED-NHS)).
T6 construct: bromodomain (BRD) of human Baz2B with a cancer-associated point mutation, made on pNIC28-Bsa4-BAZ2B-BRD; Same limits as m1; mutation found in endometrial cancer; source: E. coli BL21(DE3)-R3-pRARE2, purified (Ni-NTA, Sephadex 75)
T6 sequence: T1 sequence with F86C

Assay [8] concerns the target T7, BRD^Baz2B D2143N (human, UniProt Q9UIF8 2054-2168, D2143N, fluorescent label (Monolith NT Protein Labelling Kit RED-NHS)).
T7 construct: bromodomain (BRD) of human Baz2B with a cancer-associated point mutation, made on pNIC28-Bsa4-BAZ2B-BRD; Same limits as m1; mutation found in breast invasive carcinoma; source: E. coli BL21(DE3)-R3-pRARE2, purified (Ni-NTA, Sephadex 75)
T7 sequence: T1 sequence with D90N

Changes are numbered by the printed parent chain. Bounds are passed on as bounds.

B1: H3 peptide (Ac-TARKSTGGKAPRKQL-NH2) (peptide)
peptide: Ac-TARKSTGGKAPRKQL-NH2
notes: N-terminal tail of histone H3, residues 6-20; also called unmodified H3 peptide; unmodified H3K14 tail peptide; source: synthetic peptide, bought: alta Bioscience
Consider B1, for which the Kd in assay [1] was 288 µM; in assay [2], greater than 288 µM; in assay [3], 7 µM; in assay [4] it was 8 µM; in assay [5], 1.7 µM; in assay [6] it was 211 µM. Besides, the values for the dissociation constant (Kd) in assay [7] and in assay [8] were greater than 798 µM and 42 µM, respectively.
